Results on one molecule are retold here after publication doi:10.1101/2020.11.19.389494, “The structural mechanism underlying the antithetic effect of homologous RND1 and RhoD GTPases in plexin regulation” (bioRxiv, 2020).

For the experiment, the target named is T1, human RhoD (residues 8-194) with the Q75L mutation, bound to GMP-PNP (human, UniProt O00212 8-194, Q75L).
T1 construct: Loaded with the GTP analogue GMP-PNP and Mg2+ before crystallisation; His6 tag removed with human rhinovirus 3C protease; also called GMP-PNP-loaded RhoD; source: E. coli BL21 (DE3), purified (HisTrap, Resource Q, Superdex 75); not shown: His6, N-terminal, cleaved
T1 sequence (looked up): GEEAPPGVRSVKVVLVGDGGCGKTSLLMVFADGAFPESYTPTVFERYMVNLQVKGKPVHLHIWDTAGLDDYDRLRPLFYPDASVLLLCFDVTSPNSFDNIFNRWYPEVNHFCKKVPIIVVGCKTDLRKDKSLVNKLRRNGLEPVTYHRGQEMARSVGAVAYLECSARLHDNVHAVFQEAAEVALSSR
Put plainly: crystal structure; Plexin B2 (1274-1842) and GMP-PNP-loaded RhoD mixed at 1:1 molar ratio, 6 mg/mL total; crystals grown over a month at 20 °C in 0.2 M MgCl2, 22 % PEG3350, 100 mM MIB pH 6.8; plexin B2 degraded to the RBD in the drops; 3.1 Å, molecular replacement. The conditions noted are these: both partners purified.

B1: mouse plexin B2 Rho GTPase binding domain (RBD) (domain or fragment, UniProt B2RXS4 1463-1565, looked up)
chain: EYAPLTVSVIVQDEGIDAIPVKVLNCDTISQVKEKIIDQVYRTQPCSCWPKPDSVVLEWRPGSTAQILSDLDLTSQREGRWKRINTLMHYNVRDGATLILSKV
notes: Plexin B2, mouse; Expressed as the intracellular region without the juxtamembrane region (residues 1274-1842); it degraded in the crystallization drops and the crystal held only the RBD, of which residues 1463-1509 and 1510-1565 are described in the model; In the crystal two RBD chains form a domain-swapped dimer (swap between residues 1509 and 1510), which the authors regard as a crystallization …
Turning to B1, the binding result was “binds”.
